How the values were obtained:
PTHR1 = experiment: Flow cytometry binding to HEK293 expressing human PTHR1; conditions: flow cytometry MFI, VHH-Alexafluor647, 1 h on ice; no plateau, estimate
From the text: Cells were pelleted by centrifugation and washed with PBS prior to analysis by flow cytometry (BD Accuri C6).
Supplementary Figure 4. […] Cells
(§1) (1 picture or pasted object on this page, not shown here)

PTHR1_6E = experiment: Flow cytometry binding of VHH-Alexafluor647 to HEK293 expressing PTHR1_6E; parameters: species or system human; conditions: flow cytometry MFI, VHH-Alexafluor647, 1 h on ice
Protocol: (§2) Suspensions of cells in PBS were stained for 1 h on ice in the presence of indicated concentrations of VHH probes functionalized with Alexafluor647. Cells were pelleted by centrifugation and washed with PBS prior to analysis by flow cytometry (BD Accuri C6). To select intact cells gating was performed on forward scatter/side scatter profiles for analysis (see Supplementary Fig. 4 for an example of the gating strategy). Data were analyzed using FlowJo version 7.6. The median fluorescent intensity (MFI) of stained cells was used to generate VHH binding dose response curves (Supplementary Fig. 4).
Supplementary Figure 4. Assessment of VHH binding to PTHR1 variants by flow cytometry. Cells dislodged from tissue culture plates using trypsinization were incubated with varied concentrations of VHHs sortagged with AlexaFluor647 on ice for 1 h. Cells were centrifuged, washed, and analyzed by flow cytometry via gating of intact cells (live gate) based on forward scatter/side scatter profiles (panel a). (b) Data points represent median fluorescent intensity values ( individual data points shown, n = 2 independent replicates per condition). Connecting curves are the result of fitting a sigmoidal dose - response model to the data points. Precise estimates for VHH PTHR binding cannot be provided since the […]
as §1

PTHR1GFP = molecular target: T1, PTHR1GFP (Homo sapiens, UniProt Q03431); experiment: Flow cytometry binding of VHH-Alexafluor647 to HEK293 expressing PTHR1GFP; conditions: flow cytometry MFI, VHH-Alexafluor647, 1 h on ice; no plateau, estimate
T1 sequence (Q03431 27-593): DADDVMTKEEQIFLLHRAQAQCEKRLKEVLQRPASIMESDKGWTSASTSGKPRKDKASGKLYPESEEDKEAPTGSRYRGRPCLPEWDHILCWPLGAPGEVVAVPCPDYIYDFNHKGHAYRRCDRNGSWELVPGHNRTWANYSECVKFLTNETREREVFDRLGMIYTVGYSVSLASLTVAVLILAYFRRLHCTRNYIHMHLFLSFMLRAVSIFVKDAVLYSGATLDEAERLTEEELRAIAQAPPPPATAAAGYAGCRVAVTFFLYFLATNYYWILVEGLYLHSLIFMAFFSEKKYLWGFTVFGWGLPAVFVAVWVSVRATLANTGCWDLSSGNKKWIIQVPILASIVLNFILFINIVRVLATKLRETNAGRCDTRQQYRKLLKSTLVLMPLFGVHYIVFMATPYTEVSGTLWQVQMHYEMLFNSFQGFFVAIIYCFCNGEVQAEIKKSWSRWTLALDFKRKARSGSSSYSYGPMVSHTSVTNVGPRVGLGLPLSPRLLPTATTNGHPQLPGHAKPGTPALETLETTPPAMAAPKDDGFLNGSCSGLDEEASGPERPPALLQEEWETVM
Protocol: as §2
Supplementary Figure 1. […] HEK293 cell lines in suspension were incubated on ice with 100 nM VHH sortagged with Alexafluor647, pelleted by centrifugation, washed and analyzed. […]
PTHR1GFP. This weak staining is likely related to the inability of VHHGFP to tightly bind the pH-sensitive GFP variant known as pHluorin2 engrafted into the receptor(ref. 19, main text). c) HEK293 cells stably expressing PTHR1-GFP were treated with varied doses of the indicated peptides or conjugates and activation was assessed by measuring luminescence from a cAMP-activated luciferase variant. […]
Supplementary Figure 4. […] Cells were centrifuged, washed, and analyzed by flow cytometry via gating of intact cells (live gate) based on forward scatter/side scatter profiles (panel a). […]

rat PTHR1 (rPTHR1) = experiment: Flow cytometry binding of VHH-Alexafluor647 to HEK293 expressing rat PTHR1; conditions: 100 nM VHH-Alexafluor647, on ice
Protocol: (§3) Fig. 3 Binding of VHHs to HEK293 cell lines stably transfected with PTHRs. a Analysis of VHH binding to PTHR1, PTHR2 and variants by flow cytometry. HEK293 cell lines in suspension were incubated on ice with 100 nM VHH sortagged with Alexafluor647, pelleted by centrifugation, washed and analyzed. Data for PTHR1-GFP is found in Supplementary Fig. 1. b Analysis of VHH binding with microscopy. Adherent HEK293 cells expressing human PTHR1 were stained on ice with 50 nM VHHPTHR-tetramethylrhodamine (TMR, red) and 30 nM PTH(1-20)-fluorescein (FAM, green) for 30 min. Following staining, cells were washed and treated with fixative in preparation for image acquisition either immediately after staining (0 min) or following a 15-min incubation in medium at room temperature (15 min). Nuclei (blue) were stained with DAPI. The scale bar (20 μm) is at the bottom left image and is applicable to each image in this panel. This experiment was repeated twice with similar results.
(§4) Suspensions of cells in PBS were stained for 1 h on ice in the presence of indicated concentrations of VHH probes functionalized with Alexafluor647. Cells were pelleted by centrifugation and washed with PBS prior to analysis by flow cytometry (BD Accuri C6). […] Data were analyzed using FlowJo version 7.6. […]

PTHR2 = experiment: Flow cytometry binding of VHH-Alexafluor647 to HEK293 expressing PTHR2; parameters: species or system human; conditions: 100 nM VHH-Alexafluor647, on ice
Protocol: as §3, §4

B1: VHHPTHR: nanobody that recognizes PTHR1 itself, sequence from the literature (named 22A3) (antibody, V domains shown)
VH: EVQLVESGGGLVQAGGSLRLSCAASGNIFANNIMGWYRQPPGKEREFVAHVSHDGDSMYAVSVKGRFAISRKDATNLYLQMNSLKPEDTAIYFCRLLNIPTQGRMEGFWGQGTQVTVSS
half-maximal staining concentration (PTHR1): 100 to 200 nM | half-maximal staining concentration (PTHR1_6E): 100 to 200 nM | half-maximal staining concentration (PTHR1GFP): 100 to 200 nM | staining of cells (rat PTHR1 (rPTHR1)): bound | staining of cells (PTHR2): binds to PTHR1 but not PTHR2
